Results: the supplement of paper PMC9732359
± gives the uncertainty stated by the source.

Assay: protein stability index of a GFP-peptide fusion (yeast GPS) (PSI 1-4); higher = more stable; sorted into four equal gates, so the index is relative within each strain
Details: san1∆
Method in brief: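 Mid-log yeast cultures in leucine-free medium, carrying a pooled plasmid library, were sorted into four equal gates by their GFP/Cherry fluorescence ratio. Each plasmid expressed Cherry along with GFP fused upstream of a tiled 17-residue yeast protein peptide. Plasmids recovered from each gate were PCR-amplified and Illumina-sequenced, with reads assigned to strains by barcodes. The protein stability index was obtained by summing each gate's read frequency weighted by its gate number.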
Sequence KYDRKVPSPTGEYVKEP [RPO21] has a protein stability index of 2.81 ± 0.089.

Same assay, conditions: ubr1∆
In the case of KLDENNAQLSCITKQDG [PUP2], the protein stability index is reported as 3.06 ± 0.088.
KLDLFKYFTELSHYIRQ [MED1] gave a protein stability index of 1.33 ± 0.079.
Work on KLDTEVKNTNANPVVAT [SWP82] yielded a protein stability index of 1.86 ± 0.05.
In the case of KLHMGTEDVRLAPELNQ [RPL31B], the protein stability index is reported as 3.05 ± 0.04.
KLINIKKFDISNDNLDL [MED1] showed a protein stability index of 2.83 ± 0.096.
Work on KLKNENTDLKDIIQGNP [PCI8] yielded a protein stability index of 3.25 ± 0.089.
Sequence KLLDNIQEYQLCDNFNH [COR1] has a protein stability index of 2.2 ± 0.064.
Work on KLLKEKVKLFHGILDDL [MED2] yielded a protein stability index of 2.97 ± 0.14.
Work on KLLLLRINSTDEDLHEF [SRB8] yielded a protein stability index of 3.24 ± 0.27.
Sequence KLNELDELILEAKERYT [NNF1] has a protein stability index of 2.82 ± 0.16.
KLNTFNLQTFTHEQWSN [SRP72] gave a protein stability index of 2.78 ± 0.062.
Sequence KLNVDQFISSRQFEVKQ [POP1] has a protein stability index of 2.97 ± 0.059.
Sequence KLSDNISICMILCGIQE [YDL116W/NUP84] has a protein stability index of 2.06 ± 0.11.
KLSDSKTSNIESVPIYS [BRR2] showed a protein stability index of 2.6 ± 0.054.
KLSKEERAARVAAKIAA [RPL5] showed a protein stability index of 2.52 ± 0.078.
KLSKILRTEYGWDSLAS [SNU114] gave a protein stability index of 3.3 ± 0.17.
Sequence KLVRESELLGGTFKSTL [QCR2] has a protein stability index of 3.18 ± 0.063.
Sequence KLYFQLFLNTGCLSVLY [SRP68] has a protein stability index of 1.21 ± 0.043.
In the case of KMIILDKLLKRLKEKGS [ISW2], the protein stability index is reported as 1.44 ± 0.055.
In the case of KMVIAELLPHYPFVTND [YJR042W/NUP85], the protein stability index is reported as 2.99 ± 0.073.
Sequence KMVKAWNLNQFQIEADF [ASC1] has a protein stability index of 2.55 ± 0.04.
Sequence KNDSAEVRQETQPKAEA [NUT1] has a protein stability index of 3.38 ± 0.083.
Work on KNDSLEKTINDLQRTQT [YIL149C/MLP2] yielded a protein stability index of 2.89 ± 0.046.
Sequence KNESATINEMMKHLGRS [FAS2] has a protein stability index of 2.81 ± 0.095.
In the case of KNGLGLNFSTTAPANTT [MED2], the protein stability index is reported as 2.06 ± 0.042.
Work on KNKPELYQIDYLGTKVE [PRE1] yielded a protein stability index of 3.16 ± 0.089.
Work on KNLERLRGEYNDLQSET [SMC4] yielded a protein stability index of 2.9 ± 0.06.
With KNLSLQTGTKPVLKKKA [COR1] the protein stability index was 2.79 ± 0.076.
With KNPLFSYVEPVLVASAK [RPL31A] the protein stability index was 2.76 ± 0.05.
Sequence KNQLRDWIRFVSTKTNE [RPL22A] has a protein stability index of 2.61 ± 0.04.
For KNSDVWFLDHNYIENMN [RPN8], the protein stability index was 2.41 ± 0.057.
For KNSSTSNTEPIPRSNRH [MED1], the protein stability index was 3.18 ± 0.063.
Work on KNTIDFERFPSPSTSAN [RPN4] yielded a protein stability index of 3.03 ± 0.056.
KNTMFEKSDALVGVYRQ [SMC1] showed a protein stability index of 2.94 ± 0.23.
Sequence KNVETLEEKILAKKTHK [SMC4] has a protein stability index of 2.92 ± 0.11.
Work on KNVRFRVLQLLAVIMDN [YCG1] yielded a protein stability index of 1.51 ± 0.043.
With KPDVTYADVGGLDMQKQ [RPT3] the protein stability index was 3.35 ± 0.21.
For KPETPKGPIIISKNPSN [SIR2], the protein stability index was 2.88 ± 0.046.
For KPFLKGLVNHRVGVKLK [SMX3], the protein stability index was 1.78 ± 0.031.
KPFRQTKFKVRGSSSLY [RPL38] gave a protein stability index of 3 ± 0.085.
KPKMLPIPSKPTLFDLA [SRP68] showed a protein stability index of 2.53 ± 0.06.
With KPLGPCDVFWVQKDTAI [POP1] the protein stability index was 2.96 ± 0.054.
In the case of KPPSSAFNFSFNTSRNV [YAR002W/NUP60], the protein stability index is reported as 3.05 ± 0.04.
KPTDATGNTTSKSAFSF [YOR098C/NUP1] showed a protein stability index of 2.46 ± 0.11.
KPVYKGKKLTDEINTAQ [RET1] showed a protein stability index of 3.2 ± 0.077.
For KQANNFLWPFKLSNPSG [RPL7A], the protein stability index was 2.74 ± 0.11.
Sequence KQEIREAVELPLVQADL [RPT3] has a protein stability index of 2.96 ± 0.17.
KQLIMESQEKYMEPFDL [NSL1] showed a protein stability index of 3.28 ± 0.039.
With KQNEQLHVEQLSGGQKT [SMC3] the protein stability index was 2.19 ± 0.053.
KQQPTMQANKLDSQETP [SWI3] showed a protein stability index of 2.95 ± 0.071.
In the case of KQTDTGITHFRAGMTHE [PRP8], the protein stability index is reported as 2.94 ± 0.037.
Sequence KQYLSASFSLKNGDKPH [RPL6A] has a protein stability index of 2.96 ± 0.029.
With KRDQYLKSASKETAPVI [RPL28] the protein stability index was 2.43 ± 0.13.
KRGEVVKIIRKSETSGR [RPB5] showed a protein stability index of 3.05 ± 0.058.
For KRKTNIIMFVGLQGSGK [SRP54], the protein stability index was 2.87 ± 0.038.
In the case of KRNKYAAMLTSENAREI [RRP45], the protein stability index is reported as 2.96 ± 0.043.
For KRNSDKVEYKIVHDDPA [ITC1], the protein stability index was 1.27 ± 0.053.
In the case of KRPPEIMSTEAHVNKVT [SIR4], the protein stability index is reported as 2.73 ± 0.12.
With KRQFNNSYWLIILLGVL [ITC1] the protein stability index was 1.97 ± 0.04.
Work on KRQYVKQFLTKDLKFPL [RPL20A] yielded a protein stability index of 2.83 ± 0.04.
Sequence KRRIEEEQEKINSAPDF [ISW2] has a protein stability index of 3.57 ± 0.099.
In the case of KRVPNPNFLGNCNIKDF [SWP82], the protein stability index is reported as 2.22 ± 0.032.
In the case of KRVTIQKKDIKLARRLR [HHT1], the protein stability index is reported as 3.05 ± 0.088.
With KRYRLKESQLPRIQRAD [RPB5] the protein stability index was 3.07 ± 0.082.
KSESDELQMRSFLKEGD [RRP4] showed a protein stability index of 3.16 ± 0.096.
KSFISKLLGIGDIESLF [SRP54] showed a protein stability index of 2.1 ± 0.12.
KSIDSKTPEEVEVYAKI [ISW2] showed a protein stability index of 3.01 ± 0.12.
With KSITLKGRNNESNNKKY [YDL088C/ASM4] the protein stability index was 3.08 ± 0.064.
For KSLAMEHKSQVVLYNYY [CSN12], the protein stability index was 1.55 ± 0.035.
In the case of KSLDSIPMSKTIKDLVG [FAS2], the protein stability index is reported as 3.16 ± 0.075.
With KSLHEMNERDWRILKED [PRP28] the protein stability index was 3.01 ± 0.23.
For KSMNKSAINQYNRRQDK [SNF2], the protein stability index was 2.48 ± 0.083.
Sequence KSRIVKVVGPRGTLTKN [RPL9A] has a protein stability index of 2.71 ± 0.033.
KSTASTAAANTEKLSNG [YOR098C/NUP1] showed a protein stability index of 3.31 ± 0.091.
For KSTTPYVSALKRINKFL [POP7], the protein stability index was 1.63 ± 0.034.
For KSVKFVQGLLQNAAANA [RPL17A], the protein stability index was 2.46 ± 0.034.
KSVYETPKITAAEKSFK [SEC65] showed a protein stability index of 1.53 ± 0.08.
For KTEDGFVIPALPAAVSK [RPC82], the protein stability index was 2.8 ± 0.2.
In the case of KTEDPKGGIIASVGDIL [YML031W/NDC1], the protein stability index is reported as 2.12 ± 0.04.
KTEPVGTGLQSYLEERE [RPC53] showed a protein stability index of 3.2 ± 0.11.
KTGTKPAAVFAETLKHD [RPL4B] showed a protein stability index of 2 ± 0.15.
KTLNLFKQIKSADCELL [RPO31] gave a protein stability index of 1.05 ± 0.094.
KTMKTFVIHIQEKNFQT [RPB5] gave a protein stability index of 2.56 ± 0.088.
KTRNPLTHSTPKNFGIG [RPL8A] gave a protein stability index of 3.07 ± 0.054.
With KTTITRVEPETFEIPQA [SWI3] the protein stability index was 2.38 ± 0.054.
KTYNKLHYCVSCAIHAR [RPS26A] showed a protein stability index of 1.2 ± 0.12.
In the case of KVAQLRQTGPAKINEVY [NSL1], the protein stability index is reported as 3.58 ± 0.11.
With KVFIRESLSLKNIHISK [YML103C/NUP188] the protein stability index was 1.92 ± 0.03.
With KVIEEQLKHTKLALAEN [SMC4] the protein stability index was 2.23 ± 0.098.
In the case of KVISEILTKEVQGSTLA [RPS1A], the protein stability index is reported as 2.194 ± 0.018.
Work on KVISEILTREVQNSTLA [RPS1B] yielded a protein stability index of 2.32 ± 0.059.
Sequence KVKAGVRSANEDGTFSV [RRP43] has a protein stability index of 3.43 ± 0.077.
For KVLAAHTKFEVAIGLNG [RRP40], the protein stability index was 2.89 ± 0.057.
KVLARQQLQVLARYLKM [FAS2] showed a protein stability index of 2.1 ± 0.12.
In the case of KVLLDSKDVQQIDYKLE [RPS7A], the protein stability index is reported as 3.2 ± 0.12.
KVSDPYVPTRNTFNYDV [RPN4] showed a protein stability index of 2.08 ± 0.085.
Work on KVSGVSLLALWKEKKEK [RPS23A] yielded a protein stability index of 1.77 ± 0.11.
Sequence KVTEKVLTQLTALALKY [CSI1] has a protein stability index of 2.13 ± 0.044.
Sequence KVVNGNSADAAYAQVEI [FAS2] has a protein stability index of 2.42 ± 0.057.
Sequence KWKPVLSHIVYFLVLSP [RPN5] has a protein stability index of 1.15 ± 0.025.
KYDRILKEVPTYRYVSV [RPS25A] gave a protein stability index of 2.89 ± 0.14.
KYDRKVPSPTGEYVKEP [RPO21] showed a protein stability index of 3.09 ± 0.04.
